Data set [1] has as its target Concanavalin A (Con A) internal_change (UniProt P02866). As to the kind of experiment: BLI. The note with it: after the 20-nt 5' primer: every T = mannose-clicked C8-alkyne-dU (4), binding buffer, salt, pH and temperature not given in the material (hemagglutination: 30 min preincubation at RT).
Data set [2] shares this target. As to the kind of experiment: particle flow cytometry. The following applies: after the 20-nt 5' primer: every T = mannose-clicked C8-alkyne-dU (4), binding buffer, salt, pH and temperature not given in the material (hemagglutination: 30 min preincubation at RT). A general note: In flow cytometry, cells or beads pass a laser one at a time.
Where [3] appears, read: every C = 5-formyl-dC (2), primer unmodified.

Several values for one entry are separate records, joined by “and”; a condition that tells them apart may be missing. Equal values may be shown once.

Consider “GATCCCAGTCCGAAGTAATCGTTGCATCTGCACGACTGGTGAGCTTGAGTGGCAGAAGAACTTGTGCAAACGGCTATAGG [ConA-3-1]”, for which the Kd – broadly, the free concentration of one partner at which half of the binding sites on the other are occupied at equilibrium, for simple one-to-one binding – in data set [1] (setting [3]) was 5.8 nM; in data set [2] (setting [3]) it was 20 nM.

Take “GATCCCAGTCCGAAGTAATCGTTGCATCTGCACGACTGGTGAGCTTGAGTGGCAGAAGAACTTGTGCAAACGGCTATAGG [ConA-3-1m]”: the Kd in data set [1] (C natural) was 3.2 nM and 5.3 nM; in data set [2] (C natural) it was 17 nM.

The values are drawn from PMC6929039.
